# Laboratory results as given in IntAct's records for PubMed 23937259.
# Molecular target: pp1a_human PPP1CA (UniProt P62136)
# Sequence (P62136 whole entry): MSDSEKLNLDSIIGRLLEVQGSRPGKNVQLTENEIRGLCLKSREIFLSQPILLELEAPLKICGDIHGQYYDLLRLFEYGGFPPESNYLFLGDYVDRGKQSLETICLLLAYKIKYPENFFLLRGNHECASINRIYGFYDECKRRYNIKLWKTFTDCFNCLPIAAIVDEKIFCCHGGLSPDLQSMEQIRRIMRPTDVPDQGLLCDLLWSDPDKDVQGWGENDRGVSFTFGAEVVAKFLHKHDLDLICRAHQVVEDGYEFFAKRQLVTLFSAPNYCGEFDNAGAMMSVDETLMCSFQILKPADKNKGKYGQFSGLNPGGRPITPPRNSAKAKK
row,Substance,effect of a mutation on the interaction
1,"Leucine-rich repeat serine/threonine-protein kinase 2 (Homo sapiens), Q5S007 N1437H",increasing interaction strength
2,"Leucine-rich repeat serine/threonine-protein kinase 2 (Homo sapiens), Q5S007 R1441G",increasing interaction strength
3,"Leucine-rich repeat serine/threonine-protein kinase 2 (Homo sapiens), Q5S007 S910A;S935A;S955A;S973A",increasing interaction strength
4,"Leucine-rich repeat serine/threonine-protein kinase 2 (Homo sapiens), Q5S007 Y1699C",increasing interaction strength
